Results from patent publication US7220837.
Changes are numbered by the printed parent chain. Names and notes keep the numbering of the source.

B1: factor VII mutant Q11E33D36 (protein)
chain: ANAFLEELRQGSLERECKEEQCSFEEAREIFEDADRTKLFWISYSDGDQCASSPCQNGGSCKDQLQSYICFCLPAFEGRNCETHKDDQLICVNENGGCEQYCSDHTGTKRSCRCHEGYSLLADGVSCTPTVEYPCGKIPILEKRNASKPQGRIVGGKVCPKGECPWQVLLLVNGAQLCGGTLINTIWVVSAAHCFDKIKNWRNLIAVLGEHDLSEHDGDEQSRRVAQVIIPSTYVPGTTNHDIALLRLHQPVVLTDHVVPLCLPERTFSERTLAFVRFSLVSGWGQLLDRGATALELMVLNVPRLMTQDCLQQSRKVGDSPNITEYMFCAGYSDGSKDSCKGDSGGPHATHYRGTWYLTGIVSWGQGCATVGHFGVYTRVSQYIEWLQKLMRSEPRPGVLLRAPFP
B2: factor VII F5K (protein)
chain: B1 chain with F4K, Q10P, E32K, D35E

Tests used:
[1] = molecular target: membrane-associated tissue factor (Innovin, Dade) (UniProt P13726)
[2] = molecular target: T1, membrane-associated tissue factor (Innovin, Dade), P13726
T1 chain: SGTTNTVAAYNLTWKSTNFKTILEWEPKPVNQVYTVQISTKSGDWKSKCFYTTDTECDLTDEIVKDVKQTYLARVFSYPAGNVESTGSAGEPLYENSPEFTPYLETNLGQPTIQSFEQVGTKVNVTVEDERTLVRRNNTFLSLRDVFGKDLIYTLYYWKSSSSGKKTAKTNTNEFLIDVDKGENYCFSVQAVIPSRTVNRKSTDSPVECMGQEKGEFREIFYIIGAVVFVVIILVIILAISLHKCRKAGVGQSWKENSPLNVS

Molecule | activity in the competitive assay of Example 6 [1] | activity in the competitive assay of Example 6 [2]
Factor VII mutant Q11E33I34F35 | displayed similar activity as the Q11E33F34I35 mutant | –
B1 | – | had 70% the activity of the Q11E33 mutant
B2 | – | 33% of the activity of wild type factor VII
